These results are taken from PMC3787073 (PLoS ONE, 2013).

Common to all, as to test: enzyme inhibition kinetics (Dixon plot)
In test [1] the target is α-chymotrypsin from bovine pancreas (bovine).
The target is the same in test [2]. This is another data set of the same source.
Test [3] deals with elastase from bovine pancreas (bovine, UniProt Q28153 27-266). The following applies: both partners purified.

Like-named read-outs stand apart in the source and are kept apart here.

Chain of elastase from bovine pancreas (Q28153 27-266): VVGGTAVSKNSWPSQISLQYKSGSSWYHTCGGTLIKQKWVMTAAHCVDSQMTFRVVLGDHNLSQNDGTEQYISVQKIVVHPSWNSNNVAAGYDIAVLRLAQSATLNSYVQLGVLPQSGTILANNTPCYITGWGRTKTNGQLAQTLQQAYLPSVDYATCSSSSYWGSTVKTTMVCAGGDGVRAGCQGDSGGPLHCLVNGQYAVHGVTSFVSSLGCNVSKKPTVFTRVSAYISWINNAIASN

On to “Recombinant Sc-KU-4 (BPTI-Kunitz family serine protease inhibitor of Steinernema carpocapsae) (from UniProt E2IPQ6) (natural protein)”, for which the Ki (in general, the dissociation constant of the complex between target and ligand, obtained from inhibition or displacement) in test [1] worked out at 1.8 nM; in test [2], 2.6 nM.

B1: Recombinant Sc-KU-4 (BPTI-Kunitz family serine protease inhibitor of Steinernema carpocapsae) (natural protein)
chain: FPLFEFNCSALKDSGSGSNVTRQFYFDPDWNTCLAFNYNGTGGNTNRFETKEDCELLCVPAGSTCKGPSKTVVQPLKEAFRCDDSVCPSTHKCLMGMVPVCCDKENQEAFNQAVADTCPDGTKADGIFDLYFRAVYAHSCEDLICDENHKCVQVNKHFAKCCSKE
notes: not shown: His6, C-terminal, kept
Regarding B1, the Ki in test [3] worked out at 2.6 nM.
